{"source": "paper PMC4024747", "about": "(Nature Communications, 2014)", "binders": {"B1": {"name": "mAb NIMP.M7, PfSUB1-specific monoclonal antibody (whole antibody) (antibody, V domains shown)", "VH": "QVQLQESGPDLVKPSSSLKLTCTTTGYSISSGYSWHWIRQEPGKSLEWMGYIHYSGSTDYNDSLKARITITRDTASNMFFLQLSSVTSDDTAVYYCVIYRYDGQWVFDDWGAGTTVTVSS", "VL": "DIVLTQSPATMSASLGQRVSMSCSASSSVSTSYFHWYQQKPGSSPKLWIYSTSNLASGVPGRFSGSGSGTSYSLSISSMEAEDAATYYCHQFHRSPLTFGAGTKLELK"}}, "key": {"[1]": {"biological_target": "rPfSUB1cat, recombinant Plasmodium falciparum SUB1 core catalytic domain (38 kDa) (Plasmodium falciparum, UniProt Q8I0V0)", "sequence (Q8I0V0 333-668)": "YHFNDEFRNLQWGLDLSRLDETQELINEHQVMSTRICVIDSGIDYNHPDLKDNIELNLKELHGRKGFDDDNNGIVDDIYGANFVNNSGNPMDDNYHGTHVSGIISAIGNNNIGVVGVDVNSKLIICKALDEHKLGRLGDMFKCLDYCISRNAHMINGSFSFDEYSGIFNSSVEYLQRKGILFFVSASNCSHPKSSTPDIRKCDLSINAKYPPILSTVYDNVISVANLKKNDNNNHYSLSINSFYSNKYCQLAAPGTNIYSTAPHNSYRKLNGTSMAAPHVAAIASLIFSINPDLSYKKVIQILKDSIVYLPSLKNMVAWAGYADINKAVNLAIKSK", "test": "western blot", "conditions": "both partners purified"}, "[2]": {"biological_target": "T1, recombinant P. vivax SUB1 (Plasmodium vivax, PVX_097935 (Salvador …, UniProt E6Y8B9))", "T1 construct": "also called PvSUB1", "T1 sequence (E6Y8B9 26-630)": "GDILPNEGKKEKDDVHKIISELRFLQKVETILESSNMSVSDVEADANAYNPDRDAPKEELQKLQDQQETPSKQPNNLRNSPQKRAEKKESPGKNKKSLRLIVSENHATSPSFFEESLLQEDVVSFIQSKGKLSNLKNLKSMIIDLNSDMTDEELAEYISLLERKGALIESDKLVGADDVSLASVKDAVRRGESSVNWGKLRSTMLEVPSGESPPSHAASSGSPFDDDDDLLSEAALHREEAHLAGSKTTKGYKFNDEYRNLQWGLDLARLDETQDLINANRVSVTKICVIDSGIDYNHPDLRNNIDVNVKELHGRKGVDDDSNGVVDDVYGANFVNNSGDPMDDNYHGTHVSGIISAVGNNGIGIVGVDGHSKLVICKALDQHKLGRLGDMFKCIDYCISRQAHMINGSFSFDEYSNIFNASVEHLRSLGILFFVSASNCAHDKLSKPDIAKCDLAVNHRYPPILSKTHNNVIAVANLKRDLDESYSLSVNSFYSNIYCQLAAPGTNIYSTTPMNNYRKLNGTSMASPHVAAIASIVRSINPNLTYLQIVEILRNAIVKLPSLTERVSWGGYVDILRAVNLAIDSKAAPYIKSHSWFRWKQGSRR", "test": "western blot", "conditions": "both partners purified"}}}
{"binder": "B1", "values": [{"measurement": "binding result", "setting": "[1]", "value": "binds"}, {"measurement": "binding result", "setting": "[2]", "value": "binds"}]}
